Source: patent US20080287363A1 (LABORATOIRES SERONO, published 2008)

Biological target: recombinant Δ6 evasin-4 (truncated, N-terminally 6His tagged evasin-4, amino acids 24-127), purified (Rhipicephalus sanguineus)
Test: SPR (Biacore 3000), Δ6 evasin-4 immobilized on CM4 chip, chemokine injected

B1: XCL1/lymphotactin (ligand)
chain: VGSEVSDKRTCVSLTTQRLPVSRIKTYTITEGSLRAVIFITKRGLKVCADPQATWVRDVVRSMDRKSNTRNNMIQTKPTGTQQSTNTAVTLTG
B1: no binding (tested: 0.1 µg/ml).

B2: CCL13/MCP-4 (ligand)
chain: not shown
B2: no binding (tested: 0.1 µg/ml).
